The values below come from PMC5849602.

The star is where a group is joined. AFC = O=c1cc(C(F)(F)F)c2ccc(N*)cc2o1

Test [1] addresses co-expressed Casp6-R65W large and small subunits (human). The test can be described thus: thermal shift assay (SYPRO Orange); 10 μM Casp6 with or without 50 μM Ac-VEID-CHO, 20 mM Tris pH 8.5, 5 mM DTT, 5x SYPRO Orange, 25 to 95 °C; ΔTm = Tm with minus Tm without Ac-VEID-CHO.
Substrate in test [2]: ΔN D179 CT version of Casp6-WT (human) (UniProt P55212)
Described as above.

In test [3] the target is T1, Casp6-WT lacking its pro-domain (∆Casp6-WT) (human) (UniProt P55212).
T1 sequence: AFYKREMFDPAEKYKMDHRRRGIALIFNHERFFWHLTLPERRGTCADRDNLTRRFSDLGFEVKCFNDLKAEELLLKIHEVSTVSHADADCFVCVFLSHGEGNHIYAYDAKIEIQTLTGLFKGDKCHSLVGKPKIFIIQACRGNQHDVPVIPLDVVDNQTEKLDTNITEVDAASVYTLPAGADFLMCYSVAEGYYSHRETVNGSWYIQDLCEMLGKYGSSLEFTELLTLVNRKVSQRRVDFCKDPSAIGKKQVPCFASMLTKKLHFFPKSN

Test [4] concerns the target T2, recombinant Casp6-WT (from full-length human Casp6-WT-6xHis-tag-C-terminus) (human) (UniProt P55212).
T2 sequence: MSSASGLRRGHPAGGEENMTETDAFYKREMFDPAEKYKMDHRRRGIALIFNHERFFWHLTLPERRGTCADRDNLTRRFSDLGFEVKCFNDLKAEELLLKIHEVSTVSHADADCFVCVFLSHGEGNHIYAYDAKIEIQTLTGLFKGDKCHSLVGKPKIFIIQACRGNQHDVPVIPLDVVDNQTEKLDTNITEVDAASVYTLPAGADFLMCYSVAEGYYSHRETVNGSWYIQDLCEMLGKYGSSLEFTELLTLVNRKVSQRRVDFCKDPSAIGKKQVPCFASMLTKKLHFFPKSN

The target of test [5] is T3, recombinant Casp6-R65W (from full-length Casp6-His) (human) (UniProt P55212).
T3 sequence: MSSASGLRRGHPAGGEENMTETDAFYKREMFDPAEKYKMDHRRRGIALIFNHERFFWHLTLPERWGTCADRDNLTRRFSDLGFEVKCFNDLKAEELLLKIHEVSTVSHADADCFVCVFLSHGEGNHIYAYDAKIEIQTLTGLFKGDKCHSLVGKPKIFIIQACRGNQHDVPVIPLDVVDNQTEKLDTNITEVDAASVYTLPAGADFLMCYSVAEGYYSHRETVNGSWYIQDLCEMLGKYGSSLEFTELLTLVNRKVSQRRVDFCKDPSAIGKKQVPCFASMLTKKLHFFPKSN

B1: Ac-VEID-CHO (peptide)
peptide: Ac-VEID-aldehyde
For the molecule B1, the increase of melting temperature with Ac-VEID-CHO (ΔTm) in test [1] is 4.6 °C; in test [2], 7 °C.

B2: recombinant proCasp6-G66R (from full-length Casp6-His) (enzyme)
chain: MSSASGLRRGHPAGGEENMTETDAFYKREMFDPAEKYKMDHRRRGIALIFNHERFFWHLTLPERRRTCADRDNLTRRFSDLGFEVKCFNDLKAEELLLKIHEVSTVSHADADCFVCVFLSHGEGNHIYAYDAKIEIQTLTGLFKGDKCHSLVGKPKIFIIQACRGNQHDVPVIPLDVVDNQTEKLDTNITEVDAASVYTLPAGADFLMCYSVAEGYYSHRETVNGSWYIQDLCEMLGKYGSSLEFTELLTLVNRKVSQRRVDFCKDPSAIGKKQVPCFASMLTKKLHFFPKSN
With B2, the reduction of the VEIDase activity (40 µM Ac-VEID-AFC) of Casp3-processed ∆Casp6-WT (0.02 mg/ml) on addition of proCasp6-G66R (0.02-0.06 mg/ml, ratios 1:1 to 3:1), not dose-dependent in test [3] amounted to 30%.

B3: Ac-Val-Glu-Ile-Asp-7-Amino-4-trifluoromethylcoumarin (peptide)
peptide: Ac-VEID-{AFC}
SMILES: CC[C@H](C)[C@H](NC(=O)[C@H](CCC(=O)O)NC(=O)[C@@H](NC(C)=O)C(C)C)C(=O)N[C@@H](CC(=O)O)C(=O)Nc1ccc2c(C(F)(F)F)cc(=O)oc2c1
As for B3, the KM of Ac-VEID-AFC cleavage (Michaelis-Menten fit; 20 nM Casp6, 1-300 µM Ac-VEID-AFC) in test [4] worked out at 39.1 µM; in test [5] it was 102 µM.
